Measured values as given in PMC10354751 (Bioengineering & Translational Medicine, 2023).

Tests used:
[1] = biological target: SpyCatcher-mi3 nanoparticle; experiment: SDS-PAGE of the covalent SpyTag-SpyCatcher conjugate + dynamic light scattering; cPfCSP and SpyCatcher-mi3 mixed and allowed to react overnight at 4°C; conjugate band at ~65 kDa; diameter 48 nm against 34 nm; settings: scale: cPfCSP molecules per SpyCatcher-mi3 nanoparticle
[2] = biological target: T1, B3 synthetic peptide, (NANP)3 (without cysteine residues) (Plasmodium falciparum, synthetic peptide); experiment: ELISA; competition: 5 ng/mL mAb 2A10 pre-incubated with 0.5, 5 or 50 μg/mL of T1 or B3 peptide without cysteines, then allowed to bind to plates coated with PfCSP; signal normalised to that without peptide; settings: both partners purified
T1 construct: three NANP repeats of the major repeat region of Plasmodium falciparum circumsporozoite protein; written out from the printed formula (NANP)3; source: synthetic peptide
T1 chain: NANPNANPNANP

[3] = biological target: T2, full-length recombinant PfCSP (Plasmodium falciparum, strain of the …, UniProt Q7K740); experiment: as above; settings: both partners purified
T2 construct: Plasmodium falciparum circumsporozoite protein; source: E. coli, recombinant, provided by Gennova (Pune, India)

[4] = biological target: T3, T1 synthetic peptide (without cysteine residues) (Plasmodium falciparum, synthetic peptide); experiment: as above; settings: both partners purified
T3 construct: source: synthetic peptide
T3 chain: DPNANPNVDPNANPNV

T2 sequence (Q7K740 19-374): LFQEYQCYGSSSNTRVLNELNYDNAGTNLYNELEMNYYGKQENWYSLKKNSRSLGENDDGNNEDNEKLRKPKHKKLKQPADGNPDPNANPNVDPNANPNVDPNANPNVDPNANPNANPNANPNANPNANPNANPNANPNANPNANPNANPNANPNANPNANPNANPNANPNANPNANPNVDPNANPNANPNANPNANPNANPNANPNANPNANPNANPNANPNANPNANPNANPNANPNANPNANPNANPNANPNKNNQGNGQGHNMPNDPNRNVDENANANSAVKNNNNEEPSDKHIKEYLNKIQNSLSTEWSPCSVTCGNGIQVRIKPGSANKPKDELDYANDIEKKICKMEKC

In the case of “chimeric PfCSP (cPfCSP) with C-terminal GPGPG spacer, SpyTag and 6x His-tag (from UniProt Q7K740 82-104; Q7K740 311-340; Q7K740 341-397)”, the stoichiometry N [1] is reported as 3.2.

B1: 2A10 antibody (antibody, V domains shown)
VH: QIQLVQSGPELKKPGETVKISCKASGYTFTNYGINWVKQAPGKGLKWMGWINTITEEPTFAEEFTGRFAFSLETSASTAYLQINNLKNEDTATYFCARGSEFGRLVYWGQGASVTVSS
VL: DIQMTQTTSSLSASLGDRVTISCSASQGISNYLNWYQQKPDGTVKLLIFYTSTLYSGVPSRFSGSGSGTDYSLTISNLEPEDIATYYCQQYSRFPYVFGGGTKLEIK
notes: heavy chain gene cloned into the TGEX-HC vector; light chain gene cloned into the TGEX-LC vector; treated as one molecule; also called mAb 2A10; monoclonal antibody 2A10; source: HEK293F, transfected, purified (MabSelect SuRe)
B1: binds [2]; binds [3]; binds [4].
